Changes are numbered by the printed parent chain.
Legend:
[1] = molecular target: T1, endogenous human iRhom2 (human, UniProt Q6PJF5 1-856); assay: cell-based or functional assay
T1 sequence: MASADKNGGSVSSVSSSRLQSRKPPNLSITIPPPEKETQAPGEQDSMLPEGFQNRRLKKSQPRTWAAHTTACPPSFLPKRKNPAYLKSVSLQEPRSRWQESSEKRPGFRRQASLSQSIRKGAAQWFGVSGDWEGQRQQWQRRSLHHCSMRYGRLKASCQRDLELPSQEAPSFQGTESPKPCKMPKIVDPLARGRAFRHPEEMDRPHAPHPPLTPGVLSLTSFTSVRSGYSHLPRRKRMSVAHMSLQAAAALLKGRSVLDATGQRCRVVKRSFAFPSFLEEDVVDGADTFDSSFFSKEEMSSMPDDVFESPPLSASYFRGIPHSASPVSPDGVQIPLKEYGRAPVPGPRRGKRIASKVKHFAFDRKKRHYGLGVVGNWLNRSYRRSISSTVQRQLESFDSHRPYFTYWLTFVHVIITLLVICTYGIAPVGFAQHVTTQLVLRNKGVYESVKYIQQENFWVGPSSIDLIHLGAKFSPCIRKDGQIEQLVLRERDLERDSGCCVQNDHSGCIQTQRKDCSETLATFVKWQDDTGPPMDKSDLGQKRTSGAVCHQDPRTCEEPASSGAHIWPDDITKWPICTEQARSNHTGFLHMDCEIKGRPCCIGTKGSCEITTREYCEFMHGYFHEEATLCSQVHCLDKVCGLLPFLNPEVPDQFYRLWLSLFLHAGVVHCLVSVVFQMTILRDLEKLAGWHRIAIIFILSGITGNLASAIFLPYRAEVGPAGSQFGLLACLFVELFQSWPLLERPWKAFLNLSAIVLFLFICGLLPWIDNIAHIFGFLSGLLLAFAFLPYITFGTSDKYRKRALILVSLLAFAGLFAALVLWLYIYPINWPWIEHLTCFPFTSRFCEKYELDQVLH

[2] = molecular target: T2, human iRhom1 full length wild type C-terminally tagged with 3 consecutive copies of the T7 epitope (human, UniProt Q96CC6 1-855); assay: FACS on MEF-DKO-hiR1-FL-WT-T7 cells
T2 construct: also called hiR1-FL-WT-T7; human iRhom1 variant
T2 sequence: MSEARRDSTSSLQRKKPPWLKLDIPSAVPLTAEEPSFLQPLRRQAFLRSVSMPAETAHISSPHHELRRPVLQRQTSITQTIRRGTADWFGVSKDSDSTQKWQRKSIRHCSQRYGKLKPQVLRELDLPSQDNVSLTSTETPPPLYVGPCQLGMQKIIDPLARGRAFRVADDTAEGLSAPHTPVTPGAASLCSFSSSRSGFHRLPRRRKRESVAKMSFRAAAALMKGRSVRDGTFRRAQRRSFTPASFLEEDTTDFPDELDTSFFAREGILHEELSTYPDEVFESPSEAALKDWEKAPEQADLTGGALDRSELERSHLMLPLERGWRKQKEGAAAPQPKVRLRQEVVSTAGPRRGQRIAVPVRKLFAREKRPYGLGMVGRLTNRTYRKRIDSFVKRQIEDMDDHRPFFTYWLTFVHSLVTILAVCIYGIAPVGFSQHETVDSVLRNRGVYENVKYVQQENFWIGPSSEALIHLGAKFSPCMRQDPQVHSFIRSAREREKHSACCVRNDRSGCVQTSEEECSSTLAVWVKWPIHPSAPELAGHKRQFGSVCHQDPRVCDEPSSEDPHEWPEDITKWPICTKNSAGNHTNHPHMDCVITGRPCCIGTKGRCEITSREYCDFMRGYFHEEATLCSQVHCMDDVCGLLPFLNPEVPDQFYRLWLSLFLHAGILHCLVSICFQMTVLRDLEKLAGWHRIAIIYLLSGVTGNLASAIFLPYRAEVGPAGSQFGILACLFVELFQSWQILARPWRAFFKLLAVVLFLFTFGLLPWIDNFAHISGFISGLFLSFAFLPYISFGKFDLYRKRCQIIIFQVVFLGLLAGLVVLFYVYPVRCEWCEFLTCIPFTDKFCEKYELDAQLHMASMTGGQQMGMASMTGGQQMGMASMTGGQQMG
Experimental: In brief, in addition to immortalized MEF-DKO-EV control cells and MEF-DKO-hiR2-FL-WT-T7 cells (as already described in example 3), MEF-DKO-hiR1-FL-WT-T7 cells were harvested with 10 mM EDTA in PBS, washed and resuspended in FACS buffer (PBS, 3% FBS, 0.05% sodium azide), and seeded in Nunc U-bottom 96-well plates (Thermo Fisher Scientific, USA) at approximately 3×10⁵ cells per well. To pellet cells and remove supernatants, the plates were centrifuged at 1,500 rpm and 4° C. for 3 minutes. For primary staining, cells were resuspended in 100 μl per well of either FACS buffer alone (controls), mouse monoclonal anti-T7 IgG (Merck Millipore, USA) at 3 μg/ml FACS buffer or the humanized antibodies 16-B-03, 16-B-05, 16-B-07, 23-B-04, 42-B-02, 42-B-04 of the invention also at 3 μg/ml FACS buffer and incubated on ice for 1 hour. Afterwards, plates were centrifuged at 1,500 rpm and 4° C. for 3 minutes and washed twice with 200 μl per well of FACS buffer. For secondary staining of previous anti T7 staining, cells were spun down and resuspended in 100 μl per well of PE-conjugated goat anti-mouse IgG F(ab′)2 detection fragment (Dianova, Germany) diluted 1:100 in FACS buffer. For secondary staining of previous staining with humanized antibodies of invention, cells were spun down and resuspended in 100 μl per well of PE-conjugated goat anti-human IgG F(ab′)2 detection fragment (Dianova, Germany) diluted 1:100 in FACS buffer. Protected from light, the cell suspensions were incubated on ice for 1 hour. Plates were then centrifuged at 1,500 rpm and 4° C. for 3 minutes and washed three times with 200 μl per well of FACS buffer. Finally, cells were resuspended in 150 μl per well of FACS buffer and analyzed using a BD Accuri™ C6 Plus flow cytometer (Becton Dickinson, Germany).

B1: humanized antibody 16-B-07 (antibody, V domains shown)
VH: QVTLRESGPALVKPTQTLTLTCTFSGFSLSTFALGVGWIRQPPGKALEWLAHIWWDEDKYYNPALKSRLTISKDTSKNQVVLTITNMDPVDTATYYCARITTYYYGMDYWGQGTLVTVSS
VL: EIVMTQSPDFQSVTPKEKVTITCRASQSIGNHLHWYQQKPDASPKLLIKYASQSISGVPSRFSGSGSGTDFTLTINSLEAEDAATYFCQQSYQWPLTFGQGTKLEIK
notes: Tested as whole humanized antibody produced in CHO cells and detected with anti-human IgG; the general methods speak of human IgG1/Kappa; also called clone 16-B-07
percent inhibition of LPS-induced release of TNFα from PBMCs from healthy donors (ELISA, antibody 3 µg/ml) [1]: 72.8% | percent inhibition of LPS-induced release of TNFα from THP-1 cells (ELISA, antibody 3 µg/ml) [1]: 77.2% | percent inhibition of PMA-induced release of HB-EGF from PBMCs from healthy donors (ELISA, antibody 3 µg/ml) [1]: 66.5% | percent inhibition of PMA-induced release of HB-EGF from THP-1 cells (ELISA, antibody 3 µg/ml) [1]: 80.5% | percent inhibition of PMA-induced release of HB-EGF from U-937 cells (ELISA, antibody 3 µg/ml) [1]: 99.2% | percent inhibition of PMA-induced release of IL-6R from PBMCs from healthy donors (ELISA, antibody 3 µg/ml) [1]: 75.4% | percent inhibition of PMA-induced release of IL-6R from THP-1 cells (ELISA, antibody 3 µg/ml) [1]: 75.6% | percent inhibition of PMA-induced release of IL-6R from U-937 cells (ELISA, antibody 3.33 µg/ml) [1]: 77.5% | percent inhibition of PMA-induced release of TGFα from PC3 cells (ELISA, antibody 10 µg/ml) [1]: 3.3% | percent inhibition of PMA-induced release of TNFα from U-937 cells (ELISA, antibody 3.33 µg/ml) [1]: 90.3% | binding result [2]: no binding (tested: 3 µg/ml)

B2: humanized antibody 16-B-05 (antibody, V domains shown)
VH: B1 VH
VL: B1 VL with Q93N
notes: Tested as whole humanized antibody produced in CHO cells and detected with anti-human IgG; the general methods speak of human IgG1/Kappa; The printed LCVD reads SRESGSG where the printed cDNA encodes SRFSGSG; also called clone 16-B-05
percent inhibition of LPS-induced release of TNFα from PBMCs from healthy donors (ELISA, antibody 3 µg/ml) [1]: 73.5% | percent inhibition of LPS-induced release of TNFα from THP-1 cells (ELISA, antibody 3 µg/ml) [1]: 78.7% | percent inhibition of PMA-induced release of HB-EGF from PBMCs from healthy donors (ELISA, antibody 3 µg/ml) [1]: 74.8% | percent inhibition of PMA-induced release of HB-EGF from THP-1 cells (ELISA, antibody 3 µg/ml) [1]: 83% | percent inhibition of PMA-induced release of HB-EGF from U-937 cells (ELISA, antibody 3 µg/ml) [1]: 99.7% | percent inhibition of PMA-induced release of IL-6R from PBMCs from healthy donors (ELISA, antibody 3 µg/ml) [1]: 79% | percent inhibition of PMA-induced release of IL-6R from THP-1 cells (ELISA, antibody 3 µg/ml) [1]: 74% | percent inhibition of PMA-induced release of IL-6R from U-937 cells (ELISA, antibody 3.33 µg/ml) [1]: 81.7% | percent inhibition of PMA-induced release of TGFα from PC3 cells (ELISA, antibody 10 µg/ml) [1]: 23.8% | percent inhibition of PMA-induced release of TNFα from U-937 cells (ELISA, antibody 3.33 µg/ml) [1]: 89% | binding result [2]: no binding (tested: 3 µg/ml)

B3: humanized antibody 16-B-03 (antibody, V domains shown)
VH: B1 VH with E57D
VL: B1 VL
notes: Tested as whole humanized antibody produced in CHO cells and detected with anti-human IgG; the general methods speak of human IgG1/Kappa; also called clone 16-B-03
percent inhibition of LPS-induced release of TNFα from PBMCs from healthy donors (ELISA, antibody 3 µg/ml) [1]: 74.2% | percent inhibition of LPS-induced release of TNFα from THP-1 cells (ELISA, antibody 3 µg/ml) [1]: 75.1% | percent inhibition of PMA-induced release of HB-EGF from PBMCs from healthy donors (ELISA, antibody 3 µg/ml) [1]: 69.7% | percent inhibition of PMA-induced release of HB-EGF from THP-1 cells (ELISA, antibody 3 µg/ml) [1]: 80.2% | percent inhibition of PMA-induced release of HB-EGF from U-937 cells (ELISA, antibody 3 µg/ml) [1]: 99.2% | percent inhibition of PMA-induced release of IL-6R from PBMCs from healthy donors (ELISA, antibody 3 µg/ml) [1]: 75% | percent inhibition of PMA-induced release of IL-6R from THP-1 cells (ELISA, antibody 3 µg/ml) [1]: 75.6% | percent inhibition of PMA-induced release of IL-6R from U-937 cells (ELISA, antibody 3.33 µg/ml) [1]: 79.6% | percent inhibition of PMA-induced release of TGFα from PC3 cells (ELISA, antibody 10 µg/ml) [1]: 15.9% | percent inhibition of PMA-induced release of TNFα from U-937 cells (ELISA, antibody 3.33 µg/ml) [1]: 89.8% | binding result [2]: no binding (tested: 3 µg/ml)

Reference: patent publication US20240166767A1 (SCIRHOM, published 2024)
